Results reported in PMC6423188, “HYNIC and DOMA conjugated radiolabeled bombesin analogs as receptor-targeted probes for scintigraphic detection of breast tumor” (EJNMMI Research, 2019).

What was measured:
physchem = assay type: physicochemical; conditions: pH 7.4
Procedure: Lipophilicity of the HPLC-purified radiopeptide analogs was determined through octanol/water partition coefficients, determined at pH 7.4 by measuring the distribution of the HPLC purified radiolabeled peptides in 1-octanol and PBS. Then, 50 μL HPLC purified ^99mTc-BN1/^99mTc-BN2/^99mTc-BN3/^99mTc-BN4/^99mTc-BNS with 100 μCi of radiolabeled compound in PBS was added to a to a centrifuge tube containing 1 mL n-octanol and 1 mL PBS (0.025 M, pH 7.4). The tube was vortexed at room temperature for 2 min and they are centrifuged at 5000 rpm for 5 min to ensure complete separation of layers. Further, 100 μL of each phase was transferred into a separate pre-weighed vial and measured in the well γ-counter. The ratio of octanol layer counts to aqueous layer counts was expressed as the distribution coefficient (D, the appropriate descriptor for ionizable compounds) and logD was used for determination of lipophilicity. Counts per unit weight of the sample were calculated, and logD value as calculated as follows:
log10D = log10 [(cpm in octanol – cpm in background) / (cpm in buffer – cpm in background)]

in vitro = in vitro ADME; conditions: rat
Procedure: An aliquot (100 μL) of ^99mTc-BN1/^99mTc-BN2/^99mTc-BN3/^99mTc-BN4/^99mTc-BNS was added to 1 mL of freshly collected rat serum in centrifuge tube. The mixture was then incubated at 37 °C for 1 h; the serum protein was precipitated by adding 1 mL trichloroacetic acid (10%, V/V). The supernatant and precipitate were separated by centrifugation at 3000 rpm for 5 min. Radioactivities of both the phases were measured separately. The above experimental procedure was repeated three times. The percentage of protein binding was determined as: Plasma protein binding % = (precipitate counts (CPM) / [precipitate counts (CPM) + plasma counts (CPM)]) × 100%.

[1] = tested on: MDA-MB-231 tumor-bearing mice; assay: In vivo biodistribution; set-up: species or system mouse; conditions: for Tumor uptake: MDA-MB-231 tumor; for Tumor uptake / Blood uptake / Heart uptake / Intestine uptake / Kidney uptake / Liver uptake / Lung uptake / Muscle uptake / Pancreas uptake / Spleen uptake / Stomach uptake / Urine + urinary bladder uptake: mean ± SD, n = 3
Procedure: All animal experiments were done according to the CSIR-IICB Animal Ethics Committee’s rules and regulation. Forty-eight hours before tumor cell implantation, an immunosuppressive drug (cyclosporine-A) was given intraperitoneal (i.p) at a concentration of 30 mg/kg/day. After that, MDA-MB-231 cells (5 × 10^6) 0.2 mL were implanted subcutaneously into the left flanks of the hind leg of BALB/c mice. Thereafter, the same dose of cyclosporine was given i.p. daily up to 2 weeks. Two weeks after inoculation of the tumor cells, when tumors reached ~ 0.5 cm in mean diameter, the tumor-bearing mice were used for biodistribution and imaging studies. Animals were monitored daily and their weights were recorded. Control group of mice received only 0.9 wt% saline. After cell implantation, the growth rate of the breast tumor followed a satisfactory pattern of spheroid shape and tumors are palpable within 2 to 4 weeks. MDA-MB-231 cell implanted mice tumor models were used for biodistribution and planar imaging studies of these radiolabeled new bombesin analogs.
In tissue biodistribution studies, tumor-bearing animals were divided into four groups and well hydrated for 1 h by intraperitoneal administration of saline (0.9%, 2 mL). Three animals per groups were used for biodistribution studies. After that, the radiolabeled new bombesin analogs (^99mTc-BN) were injected intravenously in each animal of each group consequently through the tail vein [24–27]. After 5, 30, 60, and 120 min intravenous administrations of radiolabeled analogs, the animals were sacrificed; blood, heart, lung, liver, kidney, stomach, intestine, spleen, pancreas, brain, muscle, and tumor were excised, weighed, and counted for radioactivity. The organ uptake was calculated as a percentage of the injected activity per gram of wet tissue (%IA/g). In order to evaluate whether binding of bombesin analogs to MDA-MB-231 cells in vivo is specific; blocking studies with ^99mTc-labeled bombesin analogs in tumor-bearing mice were carried out. Groups of three animals were injected 0.03 nmol of ^99mTc-labeled BN analogs (2 MBq) with 25 nmol of non-radiolabeled BN peptide. After 60 min and 120 min, mice were sacrificed and the organs were collected. Each organ was weighed and counted in a gamma counter along with activity standard and percentage of injected activity per gram (%IA/g) of tissue was calculated for each type of tissues. Counts were corrected for background radiation and physical decay of the radioactivity. The uptake was expressed in the percentage of injected activity per gram of each organ (%IA/g). Data were analyzed statistically by the t test, with the level of significance set at P < 0.05.

[2] = 60 min p.i., blocked with excess non-radiolabeled BN peptide

## ^99mTc-HYNIC-Asp-[Phe^13Nle^14]BN(7-14)NH2 [99mTc-BN1]
physchem
  logD: − 1.85 ± 0.05
In vitro
  Percentage of plasma protein binding: 45.00%
[1]; 5 min p.i., i.v.
  Tumor uptake: 0.78 ± 0.03 %IA/g
  Blood uptake: 1.32 ± 0.07 %IA/g
  Heart uptake: 1.02 ± 0.05 %IA/g
  Intestine uptake: 1.06 ± 0.05 %IA/g
  Kidney uptake: 2.12 ± 0.10 %IA/g
  Liver uptake: 0.85 ± 0.04 %IA/g
  Lung uptake: 0.95 ± 0.04 %IA/g
  Muscle uptake: 0.22 ± 0.02 %IA/g
  Pancreas uptake: 2.58 ± 0.12 %IA/g
  Spleen uptake: 0.94 ± 0.04 %IA/g
  Stomach uptake: 0.42 ± 0.02 %IA/g
  Urine + urinary bladder uptake: 0.81 ± 0.04 %IA/g
[1]; 30 min p.i., i.v.
  Tumor uptake: 2.51 ± 0.12 %IA/g
  Blood uptake: 0.89 ± 0.04 %IA/g
  Heart uptake: 0.81 ± 0.04 %IA/g
  Intestine uptake: 1.36 ± 0.06 %IA/g
  Kidney uptake: 4.12 ± 0.20 %IA/g
  Liver uptake: 0.69 ± 0.03 %IA/g
  Lung uptake: 0.77 ± 0.03 %IA/g
  Muscle uptake: 0.27 ± 0.01 %IA/g
  Pancreas uptake: 1.79 ± 0.08 %IA/g
  Spleen uptake: 0.51 ± 0.02 %IA/g
  Stomach uptake: 0.85 ± 0.04 %IA/g
  Urine + urinary bladder uptake: 2.85 ± 0.01 %IA/g
[1]; [2]
  Tumor uptake: 1.20 ± 0.03 %IA/g
  Blood uptake: 0.34 ± 0.01 %IA/g
  Heart uptake: 0.44 ± 0.01 %IA/g
  Intestine uptake: 1.44 ± 0.05 %IA/g
  Kidney uptake: 3.10 ± 0.02 %IA/g
  Liver uptake: 0.55 ± 0.03 %IA/g
  Lung uptake: 0.57 ± 0.02 %IA/g
  Muscle uptake: 0.16 ± 0.02 %IA/g
  Pancreas uptake: 0.91 ± 0.04 %IA/g
  Spleen uptake: 0.35 ± 0.01 %IA/g
  Stomach uptake: 0.40 ± 0.02 %IA/g
  Urine + urinary bladder uptake: 3.56 ± 0.02 %IA/g
[1]; 60 min p.i., i.v.
  Tumor uptake: 1.85 ± 0.09 %IA/g
  Blood uptake: 0.32 ± 0.01 %IA/g
  Heart uptake: 0.47 ± 0.02 %IA/g
  Intestine uptake: 1.70 ± 0.08 %IA/g
  Kidney uptake: 3.15 ± 0.15 %IA/g
  Liver uptake: 0.56 ± 0.02 %IA/g
  Lung uptake: 0.56 ± 0.02 %IA/g
  Muscle uptake: 0.14 ± 0.01 %IA/g
  Pancreas uptake: 1.11 ± 0.05 %IA/g
  Spleen uptake: 0.32 ± 0.01 %IA/g
  Stomach uptake: 0.56 ± 0.02 %IA/g
  Urine + urinary bladder uptake: 3.50 ± 0.15 %IA/g
[1]; 120 min p.i., i.v.
  Tumor uptake: 1.56 ± 0.07 %IA/g
  Blood uptake: 0.05 ± 0.01 %IA/g
  Heart uptake: 0.17 ± 0.01 %IA/g
  Intestine uptake: 1.10 ± 0.05 %IA/g
  Kidney uptake: 1.56 ± 0.07 %IA/g
  Liver uptake: 0.32 ± 0.01 %IA/g
  Lung uptake: 0.32 ± 0.01 %IA/g
  Muscle uptake: 0.09 ± 0.02 %IA/g
  Pancreas uptake: 0.69 ± 0.03 %IA/g
  Spleen uptake: 0.26 ± 0.03 %IA/g
  Stomach uptake: 0.35 ± 0.01 %IA/g
  Urine + urinary bladder uptake: 4.79 ± 0.12 %IA/g

## ^99mTc-BN(7-14)NH2 [99mTc-BNS, reference compound]
physchem
  logD: − 0.42 ± 0.10
In vitro
  Percentage of plasma protein binding: 54%
[1]; 5 min p.i., i.v.
  Tumor uptake: 0.45 ± 0.12 %IA/g
  Blood uptake: 1.25 ± 0.05 %IA/g
  Heart uptake: 1.80 ± 0.02 %IA/g
  Intestine uptake: 0.84 ± 0.03 %IA/g
  Kidney uptake: 2.86 ± 0.10 %IA/g
  Liver uptake: 1.60 ± 0.07 %IA/g
  Lung uptake: 1.35 ± 0.04 %IA/g
  Muscle uptake: 0.16 ± 0.03 %IA/g
  Pancreas uptake: 0.88 ± 0.01 %IA/g
  Spleen uptake: 0.22 ± 0.04 %IA/g
  Stomach uptake: 0.76 ± 0.03 %IA/g
  Urine + urinary bladder uptake: 0.56 ± 0.02 %IA/g
[1]; 30 min p.i., i.v.
  Tumor uptake: 0.95 ± 0.05 %IA/g
  Blood uptake: 1.02 ± 0.03 %IA/g
  Heart uptake: 1.10 ± 0.01 %IA/g
  Intestine uptake: 0.52 ± 0.05 %IA/g
  Kidney uptake: 3.12 ± 0.20 %IA/g
  Liver uptake: 0.85 ± 0.06 %IA/g
  Lung uptake: 0.84 ± 0.11 %IA/g
  Muscle uptake: 0.26 ± 0.02 %IA/g
  Pancreas uptake: 1.73 ± 0.10 %IA/g
  Spleen uptake: 0.18 ± 0.03 %IA/g
  Stomach uptake: 0.69 ± 0.05 %IA/g
  Urine + urinary bladder uptake: 1.92 ± 0.07 %IA/g
[1]; 60 min p.i.
  tumor/kidney ratio: 0.26
[1]; [2]
  Tumor uptake: 0.68 ± 0.20 %IA/g
  Blood uptake: 0.84 ± 0.01 %IA/g
  Heart uptake: 0.77 ± 0.11 %IA/g
  Intestine uptake: 0.36 ± 0.02 %IA/g
  Kidney uptake: 2.88 ± 0.12 %IA/g
  Liver uptake: 0.42 ± 0.04 %IA/g
  Lung uptake: 0.70 ± 0.05 %IA/g
  Muscle uptake: 0.17 ± 0.03 %IA/g
  Pancreas uptake: 0.90 ± 0.02 %IA/g
  Spleen uptake: 0.10 ± 0.03 %IA/g
  Stomach uptake: 0.45 ± 0.01 %IA/g
  Urine + urinary bladder uptake: 2.58 ± 0.18 %IA/g
[1]; 60 min p.i., i.v.
  Tumor uptake: 0.75 ± 0.04 %IA/g
  Blood uptake: 0.82 ± 0.01 %IA/g
  Heart uptake: 0.79 ± 0.12 %IA/g
  Intestine uptake: 0.31 ± 0.02 %IA/g
  Kidney uptake: 2.82 ± 0.16 %IA/g
  Liver uptake: 0.40 ± 0.05 %IA/g
  Lung uptake: 0.68 ± 0.03 %IA/g
  Muscle uptake: 0.18 ± 0.04 %IA/g
  Pancreas uptake: 1.14 ± 0.05 %IA/g
  Spleen uptake: 0.11 ± 0.02 %IA/g
  Stomach uptake: 0.46 ± 0.04 %IA/g
  Urine + urinary bladder uptake: 2.54 ± 0.22 %IA/g
[1]; 120 min p.i., i.v.
  Tumor uptake: 0.58 ± 0.01 %IA/g
  Blood uptake: 0.54 ± 0.01 %IA/g
  Heart uptake: 0.50 ± 0.01 %IA/g
  Intestine uptake: 0.22 ± 0.01 %IA/g
  Kidney uptake: 2.40 ± 0.12 %IA/g
  Liver uptake: 0.22 ± 0.02 %IA/g
  Lung uptake: 0.33 ± 0.02 %IA/g
  Muscle uptake: 0.11 ± 0.02 %IA/g
  Pancreas uptake: 0.95 ± 0.04 %IA/g
  Spleen uptake: 0.06 ± 0.11 %IA/g
  Stomach uptake: 0.12 ± 0.02 %IA/g
  Urine + urinary bladder uptake: 2.85 ± 0.03 %IA/g
